In patent publication US20090202980A1 (CROSSBETA BIOSCIENCES B V, published 2009):

T1: tPA-F-EGF-GST (finger and EGF domains of human tPA with C-terminal GST tag) (human; Schistosoma japonicum, UniProt P00750 36-122)
T1 construct: domain: F-EGF; also called F-EGF-tPA; not shown: vector residues and thrombin cleavage site; Schistosoma japonicum glutathion-S-transferase (GST) tag
T1 sequence (looked up): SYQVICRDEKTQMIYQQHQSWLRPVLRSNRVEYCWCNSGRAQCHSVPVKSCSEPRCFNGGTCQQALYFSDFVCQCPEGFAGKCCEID

T2: human factor XII (Hageman factor) (human, UniProt P00748 20-615)
T2 construct: also called FXII; fXII
T2 sequence (looked up): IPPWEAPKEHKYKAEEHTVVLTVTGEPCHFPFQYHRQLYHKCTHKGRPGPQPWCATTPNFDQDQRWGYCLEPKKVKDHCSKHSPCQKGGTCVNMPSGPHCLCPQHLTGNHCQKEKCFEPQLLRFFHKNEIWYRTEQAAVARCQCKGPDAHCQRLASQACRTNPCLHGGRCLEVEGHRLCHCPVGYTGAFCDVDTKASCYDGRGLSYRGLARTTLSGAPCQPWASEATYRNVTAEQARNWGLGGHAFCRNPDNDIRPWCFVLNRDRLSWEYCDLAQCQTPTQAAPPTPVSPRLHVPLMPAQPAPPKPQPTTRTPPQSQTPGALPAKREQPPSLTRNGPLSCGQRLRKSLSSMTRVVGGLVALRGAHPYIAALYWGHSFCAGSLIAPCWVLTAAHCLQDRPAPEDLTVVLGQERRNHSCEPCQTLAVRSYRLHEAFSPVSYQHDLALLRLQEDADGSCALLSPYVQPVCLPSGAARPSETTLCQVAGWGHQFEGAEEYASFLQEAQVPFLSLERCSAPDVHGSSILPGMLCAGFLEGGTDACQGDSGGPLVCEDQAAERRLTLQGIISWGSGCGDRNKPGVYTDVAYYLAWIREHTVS

T3: tPA K1-GST (kringle 1 domain of human tPA with C-terminal GST tag) (human; Schistosoma japonicum, UniProt P00750 123-210)
T3 construct: domain: K1; not shown: vector residues and thrombin cleavage site; Schistosoma japonicum glutathion-S-transferase (GST) tag
T3 sequence (looked up): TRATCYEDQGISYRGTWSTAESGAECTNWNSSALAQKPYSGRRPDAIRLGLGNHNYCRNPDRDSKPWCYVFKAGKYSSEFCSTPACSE

B1: plasminogen (enzyme, UniProt P00747 20-810, looked up)
chain: EPLDDYVNTQGASLFSVTKKQLGAGSIEECAAKCEEDEEFTCRAFQYHSKEQQCVIMAENRKSSIIIRMRDVVLFEKKVYLSECKTGNGKNYRGTMSKTKNGITCQKWSSTSPHRPRFSPATHPSEGLEENYCRNPDNDPQGPWCYTTDPEKRYDYCDILECEEECMHCSGENYDGKISKTMSGLECQAWDSQSPHAHGYIPSKFPNKNLKKNYCRNPDRELRPWCFTTDPNKRWELCDIPRCTTPPPSSGPTYQCLKGTGENYRGNVAVTVSGHTCQHWSAQTPHTHNRTPENFPCKNLDENYCRNPDGKRAPWCHTTNSQVRWEYCKIPSCDSSPVSTEQLAPTAPPELTPVVQDCYHGDGQSYRGTSSTTTTGKKCQSWSSMTPHRHQKTPENYPNAGLTMNYCRNPDADKGPWCFTTDPSVRWEYCNLKKCSGTEASVVAPPPVVLLPDVETPSEEDCMFGNGKGYRGKRATTVTGTPCQDWAAQEPHRHSIFTPETNPRAGLEKNYCRNPDGDVGGPWCYTTNPRKLYDYCDVPQCAAPSFDCGKPQVEPKKCPGRVVGGCVAHPHSWPWQVSLRTRFGMHFCGGTLISPEWVLTAAHCLEKSPRPSSYKVILGAHQEVNLEPHVQEIEVSRLFLEPTRKDIALLKLSSPAVITDKVIPACLPSPNYVVADRTECFITGWGETQGTFGAGLLKEAQLPVIENKVCNRYEFLNGRVQSTELCAGHLAGGTDSCQGDSGGPLVCFEKDKYILQGVTSWGLGCARPNKPGVYVRVSRFVTWIEGVMRNN
notes: also called Plg
B2: tPA EGF-GST (EGF domain of human tPA with C-terminal GST tag) (other, UniProt P00750 86-122, looked up)
chain: CSEPRCFNGGTCQQALYFSDFVCQCPEGFAGKCCEID
notes: domain: EGF; not shown: vector residues and thrombin cleavage site; Schistosoma japonicum glutathion-S-transferase (GST) tag
B3: mouse non-amyloidogenic IAPP(20-29) core (ΔmIAPP) (peptide)
peptide: SNNLGPVLPP
notes: Non-amyloid negative control peptide; also called mΔIAPP; MΔIAPP
B4: human islet amyloid polypeptide, full length (fl-hIAPP) (peptide)
peptide: KCNTATCATQRLANFLVHSSNNFGAILSSTNVGSNTY

How the values were obtained:
[1] = biological target: T4, human amyloid-β peptide Aβ(1-40) (human); assay: ELISA, Aβ coated, plasminogen overlaid
T4 construct: also called hAβ(1-40); amyloid-β(1-40)

[2] = biological target: T4, human amyloid-β peptide Aβ(1-40); assay: pull-down with Aβ fibrils, Western blot
Experimental: “Control,” medium before the pull-down, “Aβ,” washed amyloid Aβ pellet, after the pull-down, “Sup,” medium after extraction with Aβ. […] MΔIAPP was coated as non-amyloid negative control (Panel E). […] The same sections were incubated with Congo red (Panels I, K, and M) to locate amyloid deposits. Panels N and O: Pull-down assay with insoluble Aβ fibrils and finger domains. […] “Control,” medium before the pull-down, “Aβ,” washed amyloid Aβ pellet, after the pull-down, “Sup,” medium after extraction with Aβ.
(§1) Conditioned medium was used for pull-down assays using Aβ and IAPP fibrils, followed by Western blot analyses.

[3] = biological target: B4; assay: pull-down with IAPP fibrils, Western blot
From the text: as §1

[4] = biological target: T1, tPA-F-EGF-GST (finger and EGF domains …); assay: ELISA, 25 µg/ml peptide immobilized, excess εACA
[5] = biological target: T5, recombinant tissue-type plasminogen activator (tPA) (human, UniProt P00750 36-562); assay: ELISA, 25 µg/ml peptide immobilized
T5 construct: Commercial full-length recombinant tPA; also called Alteplase; Actilyse

[6] = biological target: T2, human factor XII (Hageman factor); assay: ELISA, coated peptide, FXII overlaid
From the text: Ten μg of the peptides that contain cross-β structure, as well as the negative control peptide mΔIAPP and phosphate-buffered saline (PBS), were spotted in duplicate.
Wells were coated in triplicate. […] Ten μg of the peptides that contain cross-β structure, as well as the negative control peptide MΔIAPP and phosphate-buffered saline (PBS), were spotted in duplicate onto methanol-activated nitrocellulose.

[7] = biological target: T6, Fn F4-5-GST (finger domains 4-5 of human fibronectin with C-terminal GST tag) (human; Schistosoma japonicum, UniProt P02751 182-276); assay: ELISA, immobilized peptide
T6 construct: domain: fibronectin type I domains 4-5; Printed in places as Fn F4-S-GST (a misprint of F4-5); also called Fn F4-S-GST; fibronectin F4-5; not shown: (G)RP vector residues and thrombin cleavage site; Schistosoma japonicum glutathion-S-transferase (GST) tag

[8] = biological target: T5, recombinant tissue-type plasminogen …; assay: ELISA on Exiqon plates
[9] = biological target: T1, tPA-F-EGF-GST (finger and EGF domains …); assay: ELISA, 25 µg/ml peptide immobilized, excess εACA, anti-GST detection
[10] = biological target: T5, recombinant tissue-type plasminogen …; assay: ELISA, 25 µg/ml peptide immobilized on Exiqon plates
[11] = biological target: T3, tPA K1-GST (kringle 1 domain of human …); assay: pull-down with IAPP fibrils, Western blot
From the text: as §1

T4 sequence (peptide, as listed by the source): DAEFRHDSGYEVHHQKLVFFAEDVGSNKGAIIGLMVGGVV
T6 sequence (P02751 182-276, tags left off): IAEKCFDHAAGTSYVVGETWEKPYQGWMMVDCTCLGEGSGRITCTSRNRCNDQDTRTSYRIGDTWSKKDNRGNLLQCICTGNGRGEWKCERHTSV

Binder: B1
- binding result [1]: no binding

Binder: B2
- binding result [2]: no binding
- binding result [3]: no binding

Binder: B3
- binding result [4]: no binding
- binding result [5]: no binding
- binding result [6]: no binding

Binder: B4
- binding result [7]: binds
- Kd [8]: 6 nM
- Kd [9]: 13 nM
- Kd [10]: 2 nM
- binding result [11]: no binding
